B1: humanized 2A2 ROR1 CAR (other)
chain: EVQLVQSGAEVKKPGASVKVSCKASGYTFSDYEMHWVRQAPGQGLEWLGAIDPETGGTAYNQKFKGRVTMTGDTSISTAYMELSRLTSDDTAVYYCTGYYDYDSFTYWGQGTLVSVSSGGGGSGGGGSGGGGSDIQMTQSPSSLSTSVGDRVTITCKASQNVDAAVAWYQQKPGKAPKLLIYSASNRYTGVASRFSGSGSGTDFTFTISSLQSEDLADYFCQQYDIYPYTFGQGTKLEIKESKYGPPCPPCPMFWVLVVVGGVLACYSLLVTVAFIIFWVKRGRKKLLYIFKQPFMRPVQTTQEEDGCSCRFPEEEEGGCELRVKFSRSADAPAYQQGQNQLYNELNLGRREEYDVLDKRRGRDPEMGGKPRRKNPQEGLYNELQKDKMAEAYSEIGMKGERRRGKGHDGLYQGLSTATKDTYDALHMQALPPR
notes: Chimeric antigen receptor with an scFv targeting domain, expressed on primary human T cells after lentiviral transduction; also called h2A2 CAR; h2A2
B2: non-humanized R12 ROR1 CAR (other)
chain: QEQLVESGGRLVTPGGSLTLSCKASGFDFSAYYMSWVRQAPGKGLEWIATIYPSSGKTYYATWVNGRFTISSDNAQNTVDLQMNSLTAADRATYFCARDSYADDGALFNIWGPGTLVTISSGGGGSGGGGSGGGGSELVLTQSPSVSAALGSPAKITCTLSSAHKTDTIDWYQQLQGEAPRYLMQVQSDGSYTKRPGVPDRFSGSSSGADRYLIIPSVQADDEADYYCGADYIGGYVFGGGTQLTVTG
notes: Chimeric antigen receptor on primary human T cells; also called R12 CAR; non-humanized R12 CAR; not shown: spacer, transmembrane, 4-1BB and CD3z parts of the non-humanized CAR are not spelled out; construct described only by re
B3: non-humanized 2A2 ROR1 CAR (other)
chain: QVQLQQSGAELVRPGASVTLSCKASGYTFSDYEMHWVIQTPVHGLEWIGAIDPETGGTAYNQKFKGKAILTADKSSSTAYMELRSLTSEDSAVYYCTGYYDYDSFTYWGQGTLVTVSAGGGGSGGGGSGGGGSDIVMTQSQKIMSTTVGDRVSITCKASQNVDAAVAWYQQKPGQSPKLLIYSASNRYTGVPDRFTGSGSGTDFTLTISNMQSEDLADYFCQQYDIYPYTFGGGTKLEIK
notes: Chimeric antigen receptor on primary human T cells; also called 2A2 CAR; non-humanized 2A2 CAR; not shown: spacer, transmembrane, 4-1BB and CD3z parts of the non-humanized CAR are not spelled out; construct described only by re
B4: humanized R12 ROR1 CAR (other)
chain: QVQLVESGGALVQPGGSLTLSCKASGFDFSAYYMSWVRQAPGKGLEWIATIYPSSGKTYYAASVQGRFTISADNAKNTVYLQMNSLTAADTATYFCARDSYADDGALFNIWGQGTLVTVSSGGGGSGGGGSGGGGSQLVLTQSPSVSAALGSSAKITCTLSSAHKTDTIDWYQQLAGQAPRYLMYVQSDGSYEKRSGVPDRFSGSSSGADRYLIISSVQADDEADYYCGADYIGGYVFGGGTQLTVGESKYGPPCPPCPMFWVLVVVGGVLACYSLLVTVAFIIFWVKRGRKKLLYIFKQPFMRPVQTTQEEDGCSCRFPEEEEGGCELRVKFSRSADAPAYQQGQNQLYNELNLGRREEYDVLDKRRGRDPEMGGKPRRKNPQEGLYNELQKDKMAEAYSEIGMKGERRRGKGHDGLYQGLSTATKDTYDALHMQALPPR
notes: Chimeric antigen receptor with an scFv targeting domain, on primary human T cells; also called hR12 CAR; hR12

How the values were obtained:
[1] = biological target: T1, Recombinant aggregated ROR1 protein, AlexaFluor647-labeled (UniProt Q01973 30-403, limits assumed, labeled with AlexaFluor647); test: flow cytometry; CAR T cells stained with 5.3 µg/ml AlexaFluor647-labeled aggregated ROR1
T1 construct: Soluble labelled protein used to stain CAR T cells; also called ROR1 antigen
Procedure: Afterwards the cells were washed with PBS, 0.25% FCS and analyzed by flow cytometry.
Recombinant aggregated ROR1 protein was labeled with the AlexaFluor647 labeling kit (ThermoFisher Scientific, MA) and used to stain T cells expressing ROR1 CARs. The T cells were washed once in PBS, 0.25% FCS and then resuspended in the same buffer containing a final concentration of 5.3 μg/ml labeled ROR1 protein and monoclonal αEGFRt antibody. After an incubation time of 15 min the cells were washed with an excess of PBS, 0.25% FCS and analyzed by flow cytometry.

[2] = biological target: ROR1 on ROR1-positive target cells (K562-ROR1, MDA-MB-231, A549) (human, UniProt Q01973 30-937); test: cell-based or functional assay
ROR1 on ROR1-positive target cells (K562-ROR1, MDA-MB-231, A549), sequence (Q01973 30-937): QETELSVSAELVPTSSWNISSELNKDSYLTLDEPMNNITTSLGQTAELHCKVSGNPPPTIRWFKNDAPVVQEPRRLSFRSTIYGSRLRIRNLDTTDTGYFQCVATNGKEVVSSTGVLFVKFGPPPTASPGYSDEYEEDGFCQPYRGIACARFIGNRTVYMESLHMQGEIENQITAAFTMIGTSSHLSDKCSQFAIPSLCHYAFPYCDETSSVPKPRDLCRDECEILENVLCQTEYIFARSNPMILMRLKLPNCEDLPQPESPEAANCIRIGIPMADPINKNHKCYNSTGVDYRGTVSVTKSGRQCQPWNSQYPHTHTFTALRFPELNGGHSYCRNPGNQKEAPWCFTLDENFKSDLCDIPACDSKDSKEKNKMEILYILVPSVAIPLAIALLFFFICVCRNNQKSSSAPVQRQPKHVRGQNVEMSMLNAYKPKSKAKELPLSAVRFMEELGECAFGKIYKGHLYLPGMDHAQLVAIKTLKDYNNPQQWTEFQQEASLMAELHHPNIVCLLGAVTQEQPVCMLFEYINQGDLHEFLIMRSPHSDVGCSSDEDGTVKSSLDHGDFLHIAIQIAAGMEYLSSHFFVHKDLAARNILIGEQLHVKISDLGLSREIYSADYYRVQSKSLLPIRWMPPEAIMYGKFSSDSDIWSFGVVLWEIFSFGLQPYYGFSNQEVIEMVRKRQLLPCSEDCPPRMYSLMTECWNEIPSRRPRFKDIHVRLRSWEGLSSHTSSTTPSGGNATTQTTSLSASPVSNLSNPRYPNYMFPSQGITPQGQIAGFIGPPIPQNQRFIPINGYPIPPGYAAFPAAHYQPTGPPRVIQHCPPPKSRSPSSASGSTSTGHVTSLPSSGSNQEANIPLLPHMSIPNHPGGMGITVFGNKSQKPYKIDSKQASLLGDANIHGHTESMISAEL

T1 sequence (Q01973 30-403 limits assumed): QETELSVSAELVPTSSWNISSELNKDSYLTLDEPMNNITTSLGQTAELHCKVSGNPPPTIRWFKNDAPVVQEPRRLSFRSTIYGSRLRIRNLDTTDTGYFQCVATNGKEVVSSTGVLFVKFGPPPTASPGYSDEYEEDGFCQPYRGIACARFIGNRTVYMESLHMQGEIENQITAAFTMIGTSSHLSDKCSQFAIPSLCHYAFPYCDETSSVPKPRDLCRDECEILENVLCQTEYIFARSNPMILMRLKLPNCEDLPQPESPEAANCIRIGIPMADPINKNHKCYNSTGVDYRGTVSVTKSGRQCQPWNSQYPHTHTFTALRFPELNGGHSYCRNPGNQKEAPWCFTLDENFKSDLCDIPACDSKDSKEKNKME

| Binder | percentage of T cells with a distinct AlexaFluor647 signal [1] [%] | percentage of T cells with high AlexaFluor647 signal [1] [%] | proliferation index with MDA-MB-231 target cells, fold against the non-humanized R12 CAR [2] [fold] |
| --- | --- | --- | --- |
| B1 | 92.1 | 20 |  |
| B2 | 47.6 | 0.7 |  |
| B3 | 62.7 | 2.61 |  |
| B4 | 79 | 7.68 | ~2 |

Source: patent US20200040058A1 (JULIUS MAXIMILIANS UNIVERSIT T W RZBURG, published 2020)
